Columns and labels:
[1] = molecular target: CD123 (IL-3 receptor alpha chain, IL-3Ralpha) on cells (human) (UniProt P26951); assay: cell-based or functional assay
[2] = molecular target: CD123 (human IL-3Ralpha), form in the assay not stated (human) (UniProt P26951); assay: method not stated

% CD107a positive NK cells, PBMC with AML sample RMH003 and CSL360 [1]: 39% | % lysis, 51Cr release ADCC, CTLEN cells, E:T 10:1 [1]: 10% | % lysis, 51Cr release ADCC, CTLEN cells, E:T 100:1 [1]: 51% | % lysis, 51Cr release ADCC, SL (AML) cells, E:T 10:1 [1]: 2.4% | % lysis, 51Cr release ADCC, SL (AML) cells, E:T 100:1 [1]: 15% | % lysis, calcein release ADCC, RBH013 (AML), E:T 10:1 [1]: 0% | % lysis, calcein release ADCC, RBH013 (AML), E:T 100:1 [1]: 0% | % lysis, calcein release ADCC, RMH003 (AML), E:T 10:1 [1]: 39.2% | % lysis, calcein release ADCC, RMH003 (AML), E:T 100:1 [1]: 82.6% | % lysis, calcein release ADCC, RMH008 (AML), E:T 10:1 [1]: 59.5% | % lysis, calcein release ADCC, RMH008 (AML), E:T 100:1 [1]: 100% | % lysis, calcein release ADCC, RMH009 (B-ALL), E:T 10:1 [1]: 0% | % lysis, calcein release ADCC, RMH009 (B-ALL), E:T 100:1 [1]: 0% | % lysis, calcein release ADCC, RMH009* (B-ALL, repeat with other PBMC), E:T 10:1 [1]: 0% | % lysis, calcein release ADCC, RMH009* (B-ALL, repeat with other PBMC), E:T 100:1 [1]: 0% | % lysis, calcein release ADCC, RMH010 (AML), E:T 10:1 [1]: 4% | % lysis, calcein release ADCC, RMH010 (AML), E:T 100:1 [1]: 0% | % of NK cells expressing CD107a, CSL360 at E:T 1:1, CTLEN-001 [1]: 6.7% | % of NK cells expressing CD107a, CSL360 at E:T 1:1, CTLEN-008 [1]: 24% | % of NK cells expressing CD107a, CSL360 at E:T 1:1, CTLEN-010 [1]: 5.7% | % of NK cells expressing CD107a, CSL360 at E:T 1:1, CTLEN-011-PBMC-1 [1]: 8.1% | % of NK cells expressing CD107a, CSL360 at E:T 1:1, CTLEN-011-PBMC-2 [1]: 10.5% | % of NK cells expressing CD107a, CSL360 at E:T 1:1, EL4hi-002 [1]: 2.9% | % of NK cells expressing CD107a, CSL360 at E:T 1:1, EL4hi-003 [1]: 15% | % of NK cells expressing CD107a, CSL360 at E:T 1:1, EL4hi-004 [1]: 16% | % of NK cells expressing CD107a, CSL360 at E:T 1:1, EL4hi-005 [1]: 21% | % of NK cells expressing CD107a, CSL360 at E:T 1:1, EL4hi-010 [1]: 34% | % of NK cells expressing CD107a, CSL360 at E:T 1:1, EL4hi-011-PBMC-1 [1]: 15.5% | % of NK cells expressing CD107a, CSL360 at E:T 1:1, EL4hi-011-PBMC-2 [1]: 23.5% | % of NK cells expressing CD107a, CSL360 at E:T 1:1, EL4hi/lo-001 [1]: 2.8% | % of NK cells expressing CD107a, CSL360 at E:T 1:1, RBH009^a (AML) [1]: 8.5% | % of NK cells expressing CD107a, CSL360 at E:T 1:1, RBH009^b (AML) [1]: 8% | % of NK cells expressing CD107a, CSL360 at E:T 1:1, RBH013^a (AML) [1]: 10% | % of NK cells expressing CD107a, CSL360 at E:T 1:1, RBH013^b (AML) [1]: 22% | % of NK cells expressing CD107a, CSL360 at E:T 1:1, RMH003^a (AML) [1]: 30% | % of NK cells expressing CD107a, CSL360 at E:T 1:1, RMH003^b (AML) [1]: 33% | % of NK cells expressing CD107a, CSL360 at E:T 1:1, RMH003^c (AML) [1]: 38% | % of NK cells expressing CD107a, CSL360 at E:T 1:1, RMH007 (B-ALL) [1]: 16.4% | % of NK cells expressing CD107a, CSL360 at E:T 1:1, RMH008^a (AML) [1]: 9% | % of NK cells expressing CD107a, CSL360 at E:T 1:1, RMH008^b (AML) [1]: 16% | % of NK cells expressing CD107a, CSL360 at E:T 1:1, RMH008^c (AML) [1]: 8.7% | % of NK cells expressing CD107a, CSL360 at E:T 1:1, RMH009^a (B-ALL) [1]: 3% | % of NK cells expressing CD107a, CSL360 at E:T 1:1, RMH009^b (B-ALL) [1]: 1.7% | % of NK cells expressing CD107a, CSL360 at E:T 1:1, RMH009^c (B-ALL) [1]: 7.4% | % of NK cells expressing CD107a, CSL360 at E:T 1:1, RMH010^a (AML) [1]: 14% | % of NK cells expressing CD107a, CSL360 at E:T 1:1, RMH010^b (AML) [1]: 25.5% | % of NK cells expressing CD107a, CSL360 at E:T 1:1, RMH011 (AML) [1]: 6.6% | % of NK cells expressing CD107a, CSL360 at E:T 1:1, TF-1 (GM-CSF) [1]: 0.7% | % of NK cells expressing CD107a, CSL360 at E:T 1:1, TF-1 (IL-3) [1]: 1.45% | IC50, IL-3-dependent TF-1 cell proliferation [1]: 5 nM | Kd [2]: 1.06 nM
Substance: CSL360 (chimeric antibody: 7G3 variable regions on a human IgG1 constant region)
